In patent publication US6656718B2, “Modified carboxypeptidase enzymes and their use” (Cancer Research Technology Limited, priority 2000, dated 2003):

Key:
CM79 = CM79 binding to CPG2 variants by ELISA; design: species or system mice; settings: clarified culture supernatants
Excerpt: CM79 binding and CPG2 enzyme activity of all CPG2 variants were initially tested in clarified culture supernatants for CM79 binding.

[1] = CPG2 enzyme activity of variants; format: biochemical; settings: clarified culture supernatants
Excerpt: Thus for example, CPG2 activity may be tested by the ability of the enzyme to hydrolyse methotrexate (MTX). CPG2 hydrolysis of MTX results in a change in absorbance at 320 nm which may be measured by spectrophotometry. CPG2 catalytic activity in solid tissues can be assayed using an indirect HPLC method, measuring, for example, 2,4-diamino-N^10 methypteroic acid (DAMPA, a metabolite of MTX).
CM79 binding and CPG2 enzyme activity of all CPG2 variants were initially tested in clarified culture supernatants for CM79 binding. […] The variant V8 MFE-23::CPG2 indicated the role of the c-terminus in CM79 binding of CPG2 (FIG. 4, Table 1). CM79 bound to all the remaining CPG2 variants (Table 1).
Radiolabelled proteins were FPLC purified using a Superose 12 column (Pharmacia; PBS mobile phase 0.5 ml/min). Gamma radiation emitting fractions at 135 kDa elution point were tested for CPG2 enzyme activity. Protein concentrations were determined using Lowry reagent according to the manufacturer's protocol (BioRad).

B1: wild-type CPG2: MFE-23::CPG2 fusion protein with wild-type CPG2: Region 1 KEYGVRD (SEQ ID NO:2), Region 2 GAGK (SEQ ID NO:4) (protein)
chain: ALAQKRDNVLFQAATDEQPAVIKTLEKLVNIETGTGDAEGIAAAGNFLEAELKNLGFTVTRSKSAGLVVGDNIVGKIKGRGGKNLLLMSHMDTVYLKGILAKAPFRVEGDKAYGPGIADDKGGNAVILHTLKLLKEYGVRDYGTITVLFNTDEEKGSFGSRDLIQEEAKLADYVLSFEPTSAGDEKLSLGTSGIAYVQVNITGKASHAGAAPELGVNALVEASDLVLRTMNIDDKAKNLRFNWTIAKAGNVSNIIPASATLNADVRYARNEDFDAAMKTLEERAQQKKLPEADVKVIVTRGRPAFNAGEGGKKLVDKAVAYYKEAGGTLGVEERTGGGTDAAYAALSGKPVIESLGLPGFGYHSDKAEYVDISAIPRRLYMAARLIMDLGAGK
CM79 binding (CM79): Yes
Enzyme Activity [1]: Yes
